The text below walks through data of article PMC9408373.

“And” between values parts separate entries of the source, which are not always exact repeats. Identical values can stand only once.

Assay [1] concerns the target the CDC42 variants (2xSW and 8xSW), mGppNHp-bound. Nature of the assay: fluorescence polarisation; 1 µM mant-GppNHp-bound CDC42 in the cuvette, IQGAP protein titrated; quadratic ligand binding equation.
For assay [2], the target named is CDC42 IH variants (four different single residue mutations and a quadruple mutation of the insert helix). Nature of the assay: fluorescence polarisation; 1 µM mant-GDP-bound CDC42 in the cuvette, IQGAP protein titrated; quadratic ligand binding equation. A general note: Fluorescence polarisation rises when a labelled molecule tumbles more slowly, as on binding a larger partner.

Assay [3] has the same target. Nature of the assay: fluorescence polarisation; 1 µM mant-GppNHp-bound CDC42 in the cuvette, IQGAP protein titrated; quadratic ligand binding equation.
Assay [4] deals with human CDC42 (aa 1-178) 8xSW (human) (UniProt P60953). Described as above.
human CDC42 (aa 1-178) 8xSW (human), sequence (P60953 1-178): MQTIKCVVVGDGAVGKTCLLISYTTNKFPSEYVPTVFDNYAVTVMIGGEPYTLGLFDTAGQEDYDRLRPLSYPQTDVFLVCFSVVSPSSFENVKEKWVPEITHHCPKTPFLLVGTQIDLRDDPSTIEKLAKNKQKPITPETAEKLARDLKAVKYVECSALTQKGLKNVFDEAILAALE

human IQGAP1 C794 (aa 863-1657), sequence (P46940 863-1657): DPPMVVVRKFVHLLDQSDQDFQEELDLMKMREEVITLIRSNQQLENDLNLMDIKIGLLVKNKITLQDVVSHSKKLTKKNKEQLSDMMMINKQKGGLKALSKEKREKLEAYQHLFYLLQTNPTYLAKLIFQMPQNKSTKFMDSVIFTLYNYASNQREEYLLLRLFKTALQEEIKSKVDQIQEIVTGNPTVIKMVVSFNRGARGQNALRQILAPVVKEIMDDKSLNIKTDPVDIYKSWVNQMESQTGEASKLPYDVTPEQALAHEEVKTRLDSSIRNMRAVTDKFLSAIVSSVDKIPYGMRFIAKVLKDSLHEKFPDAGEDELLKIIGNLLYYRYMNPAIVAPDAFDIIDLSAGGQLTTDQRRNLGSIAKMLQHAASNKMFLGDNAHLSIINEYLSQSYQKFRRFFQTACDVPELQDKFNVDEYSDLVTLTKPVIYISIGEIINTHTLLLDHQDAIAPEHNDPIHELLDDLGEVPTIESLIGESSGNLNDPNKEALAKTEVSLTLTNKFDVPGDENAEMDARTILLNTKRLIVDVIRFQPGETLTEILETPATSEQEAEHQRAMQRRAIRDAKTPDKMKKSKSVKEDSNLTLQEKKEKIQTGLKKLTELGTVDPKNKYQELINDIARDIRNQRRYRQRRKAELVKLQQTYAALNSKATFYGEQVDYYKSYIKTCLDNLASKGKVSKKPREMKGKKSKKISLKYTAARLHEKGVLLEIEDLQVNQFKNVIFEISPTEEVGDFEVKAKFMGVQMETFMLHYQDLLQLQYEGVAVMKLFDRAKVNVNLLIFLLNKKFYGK
human IQGAP1 GRD1 (aa 962-1345), sequence (P46940 962-1345): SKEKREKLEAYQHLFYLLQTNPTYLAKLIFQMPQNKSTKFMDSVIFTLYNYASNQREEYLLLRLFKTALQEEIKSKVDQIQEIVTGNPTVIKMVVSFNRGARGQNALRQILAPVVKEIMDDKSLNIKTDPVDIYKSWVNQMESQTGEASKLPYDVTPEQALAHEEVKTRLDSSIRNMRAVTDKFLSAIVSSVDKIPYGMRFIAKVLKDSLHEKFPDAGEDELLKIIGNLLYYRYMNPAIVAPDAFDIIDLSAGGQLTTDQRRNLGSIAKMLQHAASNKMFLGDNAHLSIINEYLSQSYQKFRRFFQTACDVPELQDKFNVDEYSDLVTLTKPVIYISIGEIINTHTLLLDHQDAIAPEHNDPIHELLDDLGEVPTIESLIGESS

As to “human IQGAP1 GRD1 (aa 962-1345) (from UniProt P46940 962-1345) (domain or fragment)”, the fold reduction in binding affinity against CDC42 WT in assay [1] was 2 fold and 3 fold.
On to “human IQGAP1 C794 (aa 863-1657) (from UniProt P46940 863-1657) (domain or fragment)”, for which the fold lower affinity than for CDC42 WT was 3 fold in assay [2] and 20 fold in assay [3]. The substance also gave a fold reduction in binding affinity against CDC42 WT in assay [4] of 86 fold.
